US20200147231A1 (NATIONAL CANCER CENTER JAPAN, published 2020)

Columns and labels:
[1] = molecular target: T1, insoluble fibrin (fibrinogen from human plasma, immobilised on a plate and treated with thrombin) (human, UniProt P02671 36-629; P02679 27-437); assay: ELISA on the human fibrin plate (coated fibrinogen treated with thrombin), HRP secondary antibody, absorbance at 450 nm
T1 construct: Plasma-derived material; also called fibrin plate; insoluble fibrin plate
T1 sequence 1: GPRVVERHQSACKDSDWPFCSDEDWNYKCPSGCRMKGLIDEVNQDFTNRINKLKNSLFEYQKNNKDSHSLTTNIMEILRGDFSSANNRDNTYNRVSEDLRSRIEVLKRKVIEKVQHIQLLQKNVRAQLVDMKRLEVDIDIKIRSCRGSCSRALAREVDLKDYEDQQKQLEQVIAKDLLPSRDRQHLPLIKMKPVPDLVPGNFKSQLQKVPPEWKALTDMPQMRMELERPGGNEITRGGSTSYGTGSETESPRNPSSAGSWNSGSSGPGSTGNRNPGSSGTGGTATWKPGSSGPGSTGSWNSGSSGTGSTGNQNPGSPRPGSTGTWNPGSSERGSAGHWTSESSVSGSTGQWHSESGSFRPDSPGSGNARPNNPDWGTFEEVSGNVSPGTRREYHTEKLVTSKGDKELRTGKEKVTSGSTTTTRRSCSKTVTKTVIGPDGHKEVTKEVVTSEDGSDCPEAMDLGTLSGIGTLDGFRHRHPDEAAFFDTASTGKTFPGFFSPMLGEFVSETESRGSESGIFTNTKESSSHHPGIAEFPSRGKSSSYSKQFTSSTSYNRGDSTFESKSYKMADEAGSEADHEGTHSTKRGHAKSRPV
T1 sequence 2: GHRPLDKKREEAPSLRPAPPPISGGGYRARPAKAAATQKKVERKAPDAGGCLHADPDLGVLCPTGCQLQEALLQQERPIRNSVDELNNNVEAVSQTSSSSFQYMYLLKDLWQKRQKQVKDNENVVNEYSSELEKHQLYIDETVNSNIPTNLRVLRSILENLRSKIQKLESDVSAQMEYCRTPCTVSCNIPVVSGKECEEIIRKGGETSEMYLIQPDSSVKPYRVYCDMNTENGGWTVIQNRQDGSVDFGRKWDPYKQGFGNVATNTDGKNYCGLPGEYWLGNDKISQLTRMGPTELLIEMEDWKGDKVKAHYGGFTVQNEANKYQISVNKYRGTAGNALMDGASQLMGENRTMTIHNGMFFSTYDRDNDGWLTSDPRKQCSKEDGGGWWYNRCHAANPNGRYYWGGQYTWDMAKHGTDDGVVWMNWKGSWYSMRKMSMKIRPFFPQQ
T1 sequence 3: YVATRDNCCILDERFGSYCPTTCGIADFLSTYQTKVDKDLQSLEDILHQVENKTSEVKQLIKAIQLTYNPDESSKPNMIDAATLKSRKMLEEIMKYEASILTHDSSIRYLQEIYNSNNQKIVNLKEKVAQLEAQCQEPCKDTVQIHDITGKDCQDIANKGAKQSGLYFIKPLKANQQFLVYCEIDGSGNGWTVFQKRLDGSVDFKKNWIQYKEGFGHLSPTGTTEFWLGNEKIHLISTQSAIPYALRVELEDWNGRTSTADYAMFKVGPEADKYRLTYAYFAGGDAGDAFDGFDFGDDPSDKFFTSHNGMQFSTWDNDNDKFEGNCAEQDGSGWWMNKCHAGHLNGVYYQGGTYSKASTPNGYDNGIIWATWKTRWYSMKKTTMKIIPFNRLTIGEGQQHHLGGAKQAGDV
Procedure: In advance of the ELISA, an antigen-immobilized plate was prepared. Fibrinogen from human plasma (SIGMA) was dissolved in TBS (pH 8.5) to produce a 20 μg/mL fibrinogen solution. The solution was added to a 96-well immunoplate at 50 μL/well and was left to stand at 4° C. overnight to prepare a fibrinogen plate. Thrombin diluted to 0.05 NIH U/mL with a thrombin diluent [7 mM L-cysteine (FUJIFILM Wako Pure Chemical Corporation), 1 mM CaCl₂ (FUJIFILM Wako Pure Chemical Corporation), TBS (pH 8.5)] was added to the fibrinogen plate at 100 μL/well and was incubated at 37° C. for 2 hours to prepare a fibrin plate. The plate on which each antigen was immobilized was washed with 200 μL of PBS-T (PBS, 0.5% (v/v) Tween 20) three times, and 200 μL of a blocking solution [PBS-T, 1% (w/v) BSA] were added to each well, followed by being left to stand at room temperature for 1 hour for blocking. The samples serially diluted with PBS were added to the plate at 50 μL/well and were left to stand at room temperature for 1 hour. The solutions were discarded, and the plate was washed with PBS-T three times. A secondary antibody diluted to 0.3 μg/mL with the blocking solution was added to the plate at 50 μL/well, followed by being left to stand at room temperature for 30 minutes. […]

[2] = molecular target: peptide of the epitope site of 102-10; assay: SPR (Biacore T200), peptide immobilised on CM5, antibody as analyte, multi cycle kinetics

B1: antibody obtained from clone 99-5 (antibody, V domains shown)
VH: QIQLVQSGPELKKPGETVKISCKASGYTFTNYGMNWVKQAPGKGLKWMGWINTKIGEPTYAEEFKGRFAFSLETSASTAYLQINNLKNEDTATYFCARLLDYWGQGTTLTVSS
VL: DIVLTQSPASLAVSLGQRATISCRASESVDSYGNSFMHWYQQKPGQPPKLLIYRASNLESGIPARFSGSGSRTDFTLTINPVEADDVATYYCQQSNEDPRTFGGGTKLEIKR
notes: also called antibody 99
- binding result [1]: binds

B2: antibody obtained from clone 99-5 (antibody, V domains shown)
VH: QIQLVQSGPELKKPGETVKISCKASGYTFTNYGMNWVKQAPGKGLKWMGWINTKIGEPTYAEEFKGRFAFSLETSASTAYLQINNLKNEDTATYFCARLLDYWGQGTTLTVSSAKTTPPSV
VL: GDIVLTQSPASLAVSLGQRATISCRASESVDSYGNSFMHWYQQKPGQPPKLLIYRASNLESGIPARFSGSGSRTDFTLTINPVEADDVATYYCQQSNEDPRTFGGGTKLEIKRADAAPTVS
- Kd [2]: 32.6 nM
- koff [2]: 0.000585 s⁻¹
- kon [2]: 18000 M⁻¹ s⁻¹

B3: antibody obtained from clone 1101 (antibody, V domains shown)
VH: EVQLQQSGTVLARPGASVKMSCKASGFSFTSYWMHWVKQRPGQGLEWIGAIYPGNSDTRNNQKFKGKAKLTAVTSANTAYMELSSLTNEDSAVYYCTRKAHYGNYGFAYWGQGTLVTVSAA
VL: DIQMTQSSSYLSVSLGGRVTITCKASDHINNWLAWYQQKPGNAPRLLISGATSLETGVPSRFSGSGSGKDYTLSITSLQTEDVATYYCQQYWSTPLTFGAGTKLELKRADAAP
- Kd [2]: 66.8 nM
- koff [2]: 0.00325 s⁻¹
- kon [2]: 93700 M⁻¹ s⁻¹

B4: antibody obtained from clone 1101 (antibody, V domains shown)
VH: EVQLQQSGTVLARPGASVKMSCKASGFSFTSYWMHWVKQRPGQGLEWIGAIYPGNSDTRNNQKFKGKAKLTAVTSANTAYMELSSLTNEDSAVYYCTRKAHYGNYGFAYWGQGTLVTVSA
VL: DIQMTQSSSYLSVSLGGRVTITCKASDHINNWLAWYQQKPGNAPRLLISGATSLETGVPSRFSGSGSGKDYTLSITSLQTEDVATYYCQQYWSTPLTFGAGTKLELKR
notes: also called antibody 1101
- binding result [1]: binds
